Article PMC12583694, “RNF114 and RNF166 exemplify reader-writer E3 ligases that extend K11 polyubiquitin onto sites of MARUbylation” (The EMBO Journal, 2025)

Molecular target: ADPr-TAMRA (ADPrT)
Assay: fluorescence polarisation
Settings: read at the highest titration point, about 75 µM RNF114 (left graph); parent: est. 50; read off a plot

| Substance | response |
| --- | --- |
| RNF114 (wild type, full-length) (from UniProt Q9Y508) R198E | 13 |
| RNF114 (wild type, full-length) (from UniProt Q9Y508) W181D; G182E | 6 |
